Experimental findings from paper PMC7282817 are described below.

The target of the series is Spen RRM2-4 RRM3 Mt ((SHARP named as human homolog for the pET28a constructs; gene listed as mouse NM_019763.2)) (UniProt Q96T58). Kind of series: fluorescence anisotropy. As to conditions: pH 8.3; FA: 45 mM KCl, 5 mM NaCl, 50 mM Tris pH 7.5 (WT) or 8.3 (RRM3 Mt), 5% glycerol, RNA 1-3 nM, room temperature 40-60 min; competition EMSA: 50 mM Tris pH 7.5 ….
Sequence of UniProt Q96T58 (Q96T58 whole entry): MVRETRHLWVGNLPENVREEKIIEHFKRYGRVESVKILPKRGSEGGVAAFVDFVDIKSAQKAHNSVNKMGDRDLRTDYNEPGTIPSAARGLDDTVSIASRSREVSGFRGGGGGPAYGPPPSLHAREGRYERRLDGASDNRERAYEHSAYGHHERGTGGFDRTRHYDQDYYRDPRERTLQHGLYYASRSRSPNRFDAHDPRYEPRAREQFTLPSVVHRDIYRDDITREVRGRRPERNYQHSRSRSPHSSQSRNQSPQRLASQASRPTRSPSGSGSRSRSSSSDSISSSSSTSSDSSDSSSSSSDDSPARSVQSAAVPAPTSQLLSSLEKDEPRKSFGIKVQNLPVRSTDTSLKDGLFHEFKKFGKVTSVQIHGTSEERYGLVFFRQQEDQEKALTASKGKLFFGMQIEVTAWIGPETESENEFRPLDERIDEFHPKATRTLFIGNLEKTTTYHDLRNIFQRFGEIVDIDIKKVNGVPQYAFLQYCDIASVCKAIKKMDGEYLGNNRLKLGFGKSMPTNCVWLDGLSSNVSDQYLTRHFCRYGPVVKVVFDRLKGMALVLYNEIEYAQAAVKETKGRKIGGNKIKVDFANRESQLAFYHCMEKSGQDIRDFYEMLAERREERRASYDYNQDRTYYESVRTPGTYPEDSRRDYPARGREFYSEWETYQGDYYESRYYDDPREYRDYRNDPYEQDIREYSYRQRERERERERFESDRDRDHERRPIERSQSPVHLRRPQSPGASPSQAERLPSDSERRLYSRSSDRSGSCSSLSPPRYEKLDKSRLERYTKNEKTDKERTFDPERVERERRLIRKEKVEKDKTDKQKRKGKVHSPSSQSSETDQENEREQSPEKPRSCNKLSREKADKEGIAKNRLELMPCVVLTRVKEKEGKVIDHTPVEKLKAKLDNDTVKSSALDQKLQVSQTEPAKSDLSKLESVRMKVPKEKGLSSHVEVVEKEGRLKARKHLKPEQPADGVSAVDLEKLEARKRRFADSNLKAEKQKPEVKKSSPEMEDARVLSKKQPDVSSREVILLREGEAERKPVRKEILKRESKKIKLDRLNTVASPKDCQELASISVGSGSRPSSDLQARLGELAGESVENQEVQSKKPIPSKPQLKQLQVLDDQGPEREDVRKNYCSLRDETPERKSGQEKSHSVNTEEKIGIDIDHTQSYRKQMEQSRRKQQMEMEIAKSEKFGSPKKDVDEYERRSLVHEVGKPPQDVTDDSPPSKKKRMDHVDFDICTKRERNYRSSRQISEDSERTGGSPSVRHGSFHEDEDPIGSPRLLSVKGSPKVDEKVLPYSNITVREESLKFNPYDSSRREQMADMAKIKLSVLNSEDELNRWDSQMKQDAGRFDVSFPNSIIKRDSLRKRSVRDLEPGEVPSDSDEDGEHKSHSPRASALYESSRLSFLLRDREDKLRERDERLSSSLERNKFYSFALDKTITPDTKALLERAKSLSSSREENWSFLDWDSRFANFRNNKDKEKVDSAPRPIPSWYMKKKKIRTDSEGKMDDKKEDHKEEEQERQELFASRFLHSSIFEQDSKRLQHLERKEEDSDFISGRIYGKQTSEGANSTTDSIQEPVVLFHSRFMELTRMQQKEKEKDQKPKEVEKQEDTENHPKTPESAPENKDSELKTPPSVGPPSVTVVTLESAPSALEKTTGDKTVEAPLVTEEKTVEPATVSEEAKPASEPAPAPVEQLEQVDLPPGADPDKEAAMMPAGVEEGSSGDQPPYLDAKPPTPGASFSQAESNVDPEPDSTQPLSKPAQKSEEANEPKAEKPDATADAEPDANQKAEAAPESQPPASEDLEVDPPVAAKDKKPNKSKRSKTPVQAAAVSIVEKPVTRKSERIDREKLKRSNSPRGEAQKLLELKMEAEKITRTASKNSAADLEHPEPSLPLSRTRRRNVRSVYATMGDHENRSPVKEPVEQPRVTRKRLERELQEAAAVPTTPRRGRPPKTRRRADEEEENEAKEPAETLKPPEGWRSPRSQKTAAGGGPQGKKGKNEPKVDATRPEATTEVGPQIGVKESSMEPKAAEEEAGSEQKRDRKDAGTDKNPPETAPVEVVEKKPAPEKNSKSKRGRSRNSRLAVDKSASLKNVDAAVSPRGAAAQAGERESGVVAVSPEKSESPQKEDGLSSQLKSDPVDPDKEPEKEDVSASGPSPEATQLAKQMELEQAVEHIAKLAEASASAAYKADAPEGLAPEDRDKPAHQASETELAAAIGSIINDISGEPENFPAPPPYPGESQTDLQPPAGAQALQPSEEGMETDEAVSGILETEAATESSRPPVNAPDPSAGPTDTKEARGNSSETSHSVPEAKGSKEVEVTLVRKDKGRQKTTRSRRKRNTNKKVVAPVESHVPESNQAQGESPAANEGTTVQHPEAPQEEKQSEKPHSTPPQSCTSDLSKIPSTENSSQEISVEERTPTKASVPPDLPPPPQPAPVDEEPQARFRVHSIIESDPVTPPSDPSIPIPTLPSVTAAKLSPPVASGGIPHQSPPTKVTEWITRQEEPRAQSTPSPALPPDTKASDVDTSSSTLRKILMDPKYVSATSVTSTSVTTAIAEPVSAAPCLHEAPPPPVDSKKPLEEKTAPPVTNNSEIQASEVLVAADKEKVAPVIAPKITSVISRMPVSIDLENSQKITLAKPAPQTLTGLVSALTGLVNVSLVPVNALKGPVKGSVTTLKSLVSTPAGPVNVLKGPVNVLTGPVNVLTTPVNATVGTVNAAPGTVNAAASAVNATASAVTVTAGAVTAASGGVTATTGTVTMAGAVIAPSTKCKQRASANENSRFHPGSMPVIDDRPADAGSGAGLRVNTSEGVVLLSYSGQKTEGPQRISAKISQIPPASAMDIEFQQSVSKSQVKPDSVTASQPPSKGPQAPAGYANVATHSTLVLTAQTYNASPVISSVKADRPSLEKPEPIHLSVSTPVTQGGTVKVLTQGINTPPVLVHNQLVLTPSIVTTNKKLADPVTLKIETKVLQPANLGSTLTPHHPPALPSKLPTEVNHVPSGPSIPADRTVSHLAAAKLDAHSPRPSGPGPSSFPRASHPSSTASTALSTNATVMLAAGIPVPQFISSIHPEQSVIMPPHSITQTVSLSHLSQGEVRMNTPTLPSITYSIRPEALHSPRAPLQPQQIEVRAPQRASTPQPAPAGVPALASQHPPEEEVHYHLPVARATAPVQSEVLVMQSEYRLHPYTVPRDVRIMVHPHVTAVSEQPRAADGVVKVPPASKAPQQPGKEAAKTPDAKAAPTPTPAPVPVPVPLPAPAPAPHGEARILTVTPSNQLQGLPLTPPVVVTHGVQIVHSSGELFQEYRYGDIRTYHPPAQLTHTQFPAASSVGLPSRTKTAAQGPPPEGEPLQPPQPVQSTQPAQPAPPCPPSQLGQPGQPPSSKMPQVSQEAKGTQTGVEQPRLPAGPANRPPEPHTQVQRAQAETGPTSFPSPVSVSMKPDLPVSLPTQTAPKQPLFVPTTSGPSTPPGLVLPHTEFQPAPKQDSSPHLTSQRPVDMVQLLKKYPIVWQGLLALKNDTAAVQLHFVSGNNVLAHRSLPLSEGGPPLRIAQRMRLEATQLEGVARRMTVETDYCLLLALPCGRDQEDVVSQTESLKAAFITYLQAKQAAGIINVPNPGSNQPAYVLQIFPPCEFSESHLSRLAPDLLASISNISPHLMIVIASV

“GAAAUUUCUCUCUGGGCCUUAUAGCAGGAGUACUCUGUUCCCUUUUGUGUCUUGUCUAAUGUCCGGUGCACCAAUCUGUUCUCGUGUUCAAUUCAUGUAUGUUCGUGUCCAGU [ERV 495 (113 nt)]”: the binding signal (affinity relative to RRM2-4) is 0.5.

The sequence “GAUCAGAGUAACUGUCUUGGCUACAUUCUUUUCUCUCGCCACCUAGCCCCUCUUCUCUUCCAGGUUUCCAAAAUGCCUUUCCAGGCUAGAACCCAGGUUGUGGUCUGCUGG [ERV 302 (111 nt)]” returned a binding signal (affinity relative to RRM2-4) of 0.5.

On to “GAUUCCAGGCAGAACUGUUGAGCAUAGAUAAUUUUCCCCCCUCAGGCCAGCUUUUUCUUUUUUUAAAUUUUGUUAAUAAAAGGGAG [ERV 205 (86 nt)]”, for which the binding signal (affinity relative to RRM2-4) is 0.5.

“GGAACUCGUUCCUUCUCCUUAGCCCAUCGGGGCCAUGGAUACCUGCUUUUAACCUUUCUCGGUCCAUCGGGACCUCGGAUACCUG [Xist A-repeat (85 nt)]”: the binding signal (affinity relative to RRM2-4) turned out to be 0.5.

“GGUACCUUAAAUCCUUGCUCUCACCCAAAAGAUUCAGAGACAAUAUCCUUUUAUUACUUAGGGUUUUAGUUUACUACAAAAGUUUCUACAAAAAAUAAAGCUUUUAUAA [ERV 411 (109 nt)]” registered a binding signal (affinity relative to RRM2-4) of 0.5.

Sequence “GGUUAAAACUGCUAUUGUUCCAUUGACUGCAGCUUGCAGUUUGAUUUCAAAUUUAAGAUCUUUAAUUCACCUGUAUACUGUAAUUAAGAUAAUUACAAGAGUAAUCAUCUUAUG [ERV 509 (114 nt)]” had a binding signal (affinity relative to RRM2-4) of 0.5.
